In the supplement of paper PMC10567573:

B1: ZNF263 (parent)
chain: EKPYKCPECGEIFAHSSNLLRHQR
B2: GFOD1 (parent)
chain: EEAEELAKEMSVPFYTSRIDEVLL

Variants of: B1
Experiment: protein stability index of a GFP-peptide fusion (GPS, HEK-293T) (PSI 1-6); higher = more stable
Conditions: c terminus: a fixed tail appended
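Also: lentivirally expressed fusions sorted by FACS into six bins by GFP to DsRed ratio, PSI derived from sequencing read proportions per bin multiplied by bin number.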

Protein stability index: each site, then its substitutions
L19: A 1.84 | E 1.91 | C 4.49 | M 2.38 | I 1.8 | Y 2.54 | P 2.18 | S 2.61 | Q 1.78 | V 2.92 | T 2.16 | D 2.78 | N 1.64 | H 3.63 | F 2.68 | K 2.73
S17: F 2.85 | H 3.51 | R 2.42 | N 2.75 | E 4.22 | T 2.06 | C 4.32 | A 2.43 | W 2.24 | D 3.33 | M 2.12 | G 2.63 | L 2.79 | Q 1.98 | V 2.08 | I 2.89 | Y 2.47 | P 2.66
R21: L 2.82 | T 4.27 | D 4.24 | S 2.89 | E 4.38 | K 3.51 | A 3.84 | M 3.58 | H 3.35 | W 3.43 | I 3.75 | V 2.85 | F 3.04 | G 2.01 | C 3.98 | P 3.43 | Y 3.36 | N 3.29
Q23: W 2.42 | N 2.88 | F 2.35 | G 1.82 | P 2.11 | D 1.82 | M 3.02 | Y 2.07 | K 2.9 | V 1.82 | A 2.21 | T 2.25 | L 2.86 | I 3.16 | C 2.41 | H 2.34 | E 2.48
R24: I 3.25 | Q 3.74 | S 4.47 | E 4.38 | M 3.6 | A 4.17 | G 3.7 | D 3.96 | H 4.43 | P 3.44 | W 2.74 | T 3.24 | Y 2.68 | C 5.28 | V 3.54 | L 4.29 | F 3.32 | K 3.25 | N 3.92
S16: W 3.44 | A 2.36 | F 3.53 | D 2.47 | G 2.48 | C 2.73 | V 2.83 | T 1.84 | I 2.96 | E 3.04 | L 3.26 | Y 3.26 | N 1.33 | P 2.81 | R 2.3 | H 2.55 | K 1.71 | M 3.32 | Q 2.45
H15: F 2.94 | S 4.34 | W 2.65 | Q 3.15 | V 2.49 | D 3.96 | N 3.62 | T 3.55 | G 2.55 | R 2.31 | L 1.95 | M 1.56 | E 3.3 | I 1.7 | Y 1.8 | P 2.54 | A 2.3 | C 3.26
H22: R 3.03 | W 1.23 | Q 1.54 | I 1.34 | D 3.17 | E 2.55 | F 1.66 | G 1.25 | C 2.43 | T 1.43 | S 1.89 | K 2.16 | M 2.64 | N 2.35 | P 1.35 | A 2.88 | L 1.91
A14: I 2.27 | R 2.57 | E 4.13 | K 2.82 | D 3.67 | P 2.7 | M 2.29 | L 2.75 | H 3.17 | V 3.17 | G 3.09 | C 2.37 | Y 2.79 | F 2.57 | W 2.69 | Q 2.45 | N 2.7 | S 2.38 | T 2.58
I12: K 1.12 | Q 3.23 | A 2.29 | N 1.83 | F 1.82 | P 1.73 | H 1.57 | G 1.17 | Y 3.01 | S 2.98 | D 2.22 | E 2.94 | V 1.7 | W 2.23 | M 2.04 | L 3.66 | C 1.26
N18: I 2.37 | H 4.44 | T 2.76 | A 4.13 | L 2.67 | F 2.54 | G 3.05 | M 2.82 | V 4.54 | E 4.7 | P 2.55 | W 2.06 | C 3.75 | S 4.02 | Y 3.37 | D 4.05
E11: Y 3.05 | R 3.09 | P 1.85 | Q 2.68 | V 1.64 | T 2.1 | W 2.42 | S 1.13
F13: Y 2.19 | K 2.55 | C 3.01 | R 3.24 | M 2.1 | W 1.5 | V 2.12 | G 2.35 | D 3.37 | L 2.54 | Q 2.33 | I 2.8 | H 4.03 | P 2.62 | N 1.51 | S 2.75
L20: C 4.11 | I 2.04 | N 1.59 | D 3.29 | R 2.59 | F 1.78 | P 1.84 | Y 2.44 | K 2.62 | E 2.75 | G 2.29 | V 1.87 | Q 2.96 | H 3.79 | M 2.6 | A 1.79 | T 2.66

Variants of: B2
Experiment: as above
Conditions: c terminus: a fixed tail appended

Protein stability index: each site, then its substitutions
E2: A 3.66 | S 3.41 | F 2.1 | Y 2.39 | H 3.06 | D 3.72 | R 2.94 | W 3.66 | V 3.64 | N 4 | L 2.76 | I 2.18 | C 3.06 | T 3.2 | M 2.53 | G 3.39
E5: V 2.58 | A 3.45 | R 3.56 | S 3.13 | F 2.94 | N 3.23 | G 4.04 | H 3.6 | K 4.14 | Y 3.98 | C 3.79 | T 3.48 | P 3.96 | L 4.05 | M 2.95 | W 2.35 | D 3.93 | I 2.57
E4: N 3.92 | H 3.4 | A 3.45 | P 3.6 | D 3.97 | G 3.4 | Y 2.64 | L 2.9 | C 2.73 | M 4 | T 3.86 | R 3.52 | Q 3.9 | W 2.77 | I 3.51 | K 3.46 | F 2.98 | S 3.93
E1: I 2.46 | S 4.24 | L 3.75 | M 3.45 | N 2.83 | Y 2.98 | G 2.43 | T 3.56 | V 2.95 | C 3.08 | A 3.79 | K 4.03 | P 3.51 | H 4.47 | R 3.33
L6: V 3.94 | Q 3.7 | M 4.01 | P 4.26 | A 4.38 | T 4.46 | I 3.73 | R 4.2 | F 3.93 | N 4.51 | C 4.38 | E 4.67 | W 3.75 | S 4.19 | K 4.54 | D 4.99 | Y 3.95 | H 4.48
A3: L 3.11 | H 3.84 | G 3.95 | V 3.32 | N 4.03 | C 2.56 | K 4.38 | E 4.32 | Y 3.38
A7: F 2.99 | G 4 | C 4.06 | E 3.87 | D 4.62
